Results from patent US20170233490A1 (Hoffmann-La Roche, published 2017).

Columns and labels:
[1] = molecular target: T1, human HER3 Extracellular Domain (ECD) (human, UniProt P21860 20-643); experiment: SPR Biacore 4000, antibody captured, analyte 150 nM, 25 C
T1 construct: human recombinant, 68 kDa; 'closed' conformation without ligand; also called Her3 ECD; Her-3 ECD
Experimental: (§1) Prior to their application the hybridoma culture supernatants were diluted 1:5 in instrument buffer. The diluted mixtures were injected at a flow rate of 30 μl/min for 2 min. The antibody capture level (CL) in response units was monitored. Immediately thereafter the respective antigen was injected at a flow rate of 30 μl/min for 3 min association time. Thereafter, the antibody-antigen complex dissociation signal was recorded for 5 min. The sensor was regenerated by injecting a 10 mM glycine-HCl solution (pH 1.7) for 2 min at a flow rate of 30 μl/min. The recorded signal shortly before the end of the injection of the antigen was denoted as binding late (BL) in response units. The recorded signal shortly before the end of the recording of the dissociation is denoted as stability late (SL) in response units. The dissociation rate constants were determined calculated The antibody-antigen complex stability in minutes was calculated with the following formula: ln(2)/60*kd. The Molar Ratio was calculated with the formula: MW (antibody)/MW(antigen)*BL (antigen)/CL (antibody).
(§2) Binding Late (BL) represents the response units at the end of the analyte injection. The amount of antibody captured as a ligand on the sensor surface is measured as Capture Level (CL) in response units. Together with the information of the molecular weights of the tested analytes, the antibody and the analyte in solution, the Molar Ratio can be calculated. […] Then, the Molar Ratio is also an indicator for the valence mode of analyte binding. The maximum valence can be MR=2 for an antibody binding two analytes, one with each Fab valence.

TtSlyD-FKBP-Her3 = molecular target: T2, TtSlyD-FKBP-Her3; experiment: as above
T2 construct: N-terminal Met present or not; also called thermo SlyD-Her3; ttSlyD-Her3
T2 chain: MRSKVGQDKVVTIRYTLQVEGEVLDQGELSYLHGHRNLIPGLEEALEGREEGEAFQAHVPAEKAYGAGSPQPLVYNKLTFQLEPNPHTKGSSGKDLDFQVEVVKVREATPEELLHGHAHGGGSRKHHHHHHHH
Experimental: as §1, §2

[2] = molecular target: T1, human HER3 Extracellular Domain (ECD); experiment: SPR Biacore T200, antibody captured, 25 C
Experimental: (§3) A Biacore T200 instrument (GE Healthcare) was mounted with a CMS series sensor. The sensor was normalized in HBS-ET buffer (10 mM HEPES pH 7.4, 150 mM NaCl, 3 mM EDTA, 0.05% w/v Tween 20) according to the manufacturer's instructions. The sample buffer was the system buffer supplemented with 1 mg/ml CMD (Carboxymethyldextran, Sigma #86524). The system operated at 25° C. 6500 RU RAM-Fcγ (relative units of Fcγ-fragment RamIgG, GE Healthcare) were immobilized according to the manufacturer's instructions using amine coupling EDC/NHS chemistry on all four flow cells. The sensor was deactivated using 1M ethanolamine. […] Concentration dependent kinetics were measured. […] All analytes were injected for 5 min association time and 10 min dissociation time at 100 μl/min flow rate. The sensor capture system was regenerated by a 3 min injection at 10 μl/min of 10 mM glycine pH 1.7. Where possible kinetic data was evaluated using the Biacore T200 evaluation software.

[3] = molecular target: T3, human HER4 Extracellular Domain (ECD) (human, UniProt Q15303 26-651); experiment: SPR Biacore T200, antibody captured, 25 C
T3 construct: also called Her4 ECD; HER4-ECD
T3 sequence: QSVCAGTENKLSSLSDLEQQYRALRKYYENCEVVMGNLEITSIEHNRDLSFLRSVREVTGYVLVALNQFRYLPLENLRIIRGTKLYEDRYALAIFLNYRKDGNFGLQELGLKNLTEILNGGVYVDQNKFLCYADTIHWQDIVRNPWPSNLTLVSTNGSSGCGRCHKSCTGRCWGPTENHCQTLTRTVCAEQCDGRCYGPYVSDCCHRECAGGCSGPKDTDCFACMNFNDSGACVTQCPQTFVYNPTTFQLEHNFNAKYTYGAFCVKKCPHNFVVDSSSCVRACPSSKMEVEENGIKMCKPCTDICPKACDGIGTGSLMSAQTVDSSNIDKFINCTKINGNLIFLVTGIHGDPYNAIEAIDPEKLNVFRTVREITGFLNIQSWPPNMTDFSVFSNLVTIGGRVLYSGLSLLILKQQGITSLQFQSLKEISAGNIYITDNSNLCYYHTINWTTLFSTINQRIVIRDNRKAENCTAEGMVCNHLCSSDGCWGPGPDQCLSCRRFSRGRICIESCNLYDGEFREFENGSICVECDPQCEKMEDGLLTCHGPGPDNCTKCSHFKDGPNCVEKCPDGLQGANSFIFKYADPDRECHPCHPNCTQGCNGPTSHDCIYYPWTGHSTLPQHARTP
Experimental: as §3

TtSlyDcys-Her3 = molecular target: T4, TtSlyDcys-Her3; experiment: SPR Biacore T200, antibody captured, 25 C
T4 chain: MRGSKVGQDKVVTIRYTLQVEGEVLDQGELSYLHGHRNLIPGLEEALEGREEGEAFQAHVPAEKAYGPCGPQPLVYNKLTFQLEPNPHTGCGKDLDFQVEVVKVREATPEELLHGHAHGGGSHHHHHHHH
Experimental: as §3

HER4 ECD-HRG complex = molecular target: T5, HER4 ECD-HRG complex (human, UniProt Q15303 26-651); experiment: SPR Biacore T200, antibody captured, 25 C
T5 construct: HER4 ECD preincubated with a 5-fold molar excess of Heregulin
T5 sequence 1: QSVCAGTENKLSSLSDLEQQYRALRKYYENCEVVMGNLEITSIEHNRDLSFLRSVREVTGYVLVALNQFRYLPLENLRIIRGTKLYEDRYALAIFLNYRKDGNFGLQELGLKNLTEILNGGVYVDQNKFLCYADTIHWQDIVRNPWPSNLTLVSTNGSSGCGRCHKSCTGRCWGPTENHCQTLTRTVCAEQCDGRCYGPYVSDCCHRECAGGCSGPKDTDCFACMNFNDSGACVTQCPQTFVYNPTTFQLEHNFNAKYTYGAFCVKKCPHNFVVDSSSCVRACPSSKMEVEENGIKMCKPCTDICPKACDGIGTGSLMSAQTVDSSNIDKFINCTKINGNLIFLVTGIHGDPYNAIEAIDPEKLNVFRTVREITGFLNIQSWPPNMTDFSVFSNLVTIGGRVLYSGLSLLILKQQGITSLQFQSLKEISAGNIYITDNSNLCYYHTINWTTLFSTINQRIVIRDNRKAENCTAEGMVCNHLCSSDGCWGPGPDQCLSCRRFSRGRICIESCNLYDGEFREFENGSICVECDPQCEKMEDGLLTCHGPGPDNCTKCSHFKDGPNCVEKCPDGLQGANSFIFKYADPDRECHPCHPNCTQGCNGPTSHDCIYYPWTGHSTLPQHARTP
T5 sequence 2: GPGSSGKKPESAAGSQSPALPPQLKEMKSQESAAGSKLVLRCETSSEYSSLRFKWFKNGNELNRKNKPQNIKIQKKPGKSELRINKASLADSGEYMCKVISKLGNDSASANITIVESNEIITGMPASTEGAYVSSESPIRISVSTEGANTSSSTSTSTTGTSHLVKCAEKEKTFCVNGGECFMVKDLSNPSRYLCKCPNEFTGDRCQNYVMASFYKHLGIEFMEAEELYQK
Experimental: as §3

MR (Molar Ratio) [1]: 0.5
koff [1]: < 1e-05 s⁻¹
MR (Molar Ratio) (TtSlyD-FKBP-Her3): 1.1
koff (TtSlyD-FKBP-Her3): 0.00012 s⁻¹
Kd [2]: 1.1 nM
MR (Molar Ratio) [2]: 0.1
koff [2]: 0.00011 s⁻¹
kon [2]: 96000 M⁻¹ s⁻¹
Kd [3]: 51 nM
MR (Molar Ratio) [3]: 0.1
koff [3]: 0.00082 s⁻¹
kon [3]: 16000 M⁻¹ s⁻¹
Kd (TtSlyDcys-Her3): 7.8 nM
MR (Molar Ratio) (TtSlyDcys-Her3): 1.9
koff (TtSlyDcys-Her3): 0.00024 s⁻¹
kon (TtSlyDcys-Her3): 30000 M⁻¹ s⁻¹
Kd (HER4 ECD-HRG complex): 8.1 nM
MR (Molar Ratio) (HER4 ECD-HRG complex): 0.8
koff (HER4 ECD-HRG complex): 0.00081 s⁻¹
kon (HER4 ECD-HRG complex): 99000 M⁻¹ s⁻¹
B1: anti-HER3/HER4 antibody M-05-74 (antibody, V domains shown)
VH: QVQLQQSGAELAKPGASVKMSCKTSGYTLTDYWIHWVKQRPGQGLEWIGYINPYTGYTESNQKFKDKATLTADKSSNTAYIQLSSLTSEDSAVYYCARPYYYGDYWGQGTTLTVSS
VL: QIVLTQSPAIMSASPGERVTITCSASSSVSYMHWFQQKPGTSPKLLIYSTSNLASGVPARFSGSGSGTSYSLTISRMEAEDAATYYCQQRSSYPFTFGSGTKLEIK
notes: murine monoclonal IgG from hybridoma (supernatant or purified), bivalent; also called M-074; M-5-74
